Source: paper doi:10.1101/2025.04.16.649111, “Nanobinders for Synaptotagmin 1 enable the analysis of synaptic vesicle dynamics in rodent and human models” (bioRxiv, 2025)

Columns and labels:
Conditions in all cases: one partner purified
[1] = biological target: T1, endogenous Synaptotagmin 1 of mouse brain and mouse neurons (mouse (endogenous in brain and primary …, UniProt P46096)); test: co-IP; immunoprecipitation: GFP-tagged nanobody pre-loaded on GFP Selector beads, incubated 1 h at 4 °C with pre-cleared lysate of WT or Syt1 KO mouse brain; blot with Syt1 cytoplasmic antibody
T1 construct: Synaptotagmin 1, mouse, endogenous whole protein (in brain extract for the immunoprecipitation, on living neurons for the uptake); also called endogenous Syt1; Syt1; source: endogenous, WT mouse brain lysate; endogenous, mouse primary neurons

[2] = biological target: T2, endogenous Synaptotagmin 1 of primary hippocampal neurons (rat) (rat (endogenous in hippocampal neurons), UniProt P21707); test: proximity labelling; NbLumSyt1-APEX2 taken up live by primary neurons (30 min with biotin-phenol), 1 mM H2O2 for 30 s; streptavidin bead enrichment, LC-MS/MS; controls NbALFA-APEX2 or no nanobody
T2 construct: Synaptotagmin 1, endogenous in primary hippocampal neurons; the spectra were searched against the Rattus norvegicus proteome (UP000234681) and neurons were in most cases from Wistar pups; also called Syt1; Syt1-lum; source: endogenous, primary hippocampal neurons (living cells)

[3] = biological target: T3, endogenous human Synaptotagmin 1 in human iPSC-derived hypothalamic-like neurons (human, UniProt P21579); test: immunostaining of cells or tissue; live uptake in 80-day old human iPSC-derived hypothalamic neurons: surface pool blocked with 4.85 µM unlabeled nanobody, then 5.5 µM pHluorin-labelled nanobody with 30 mM KCl or 1 µM TTX, 20 min at 37 °C; fixed, anti-GFP and anti-Syt1
T3 construct: Synaptotagmin 1, human, endogenous; also called human Syt1; source: endogenous, human iPSC-derived hypothalamic neurons (living cells)
T3 sequence (P21579 whole entry): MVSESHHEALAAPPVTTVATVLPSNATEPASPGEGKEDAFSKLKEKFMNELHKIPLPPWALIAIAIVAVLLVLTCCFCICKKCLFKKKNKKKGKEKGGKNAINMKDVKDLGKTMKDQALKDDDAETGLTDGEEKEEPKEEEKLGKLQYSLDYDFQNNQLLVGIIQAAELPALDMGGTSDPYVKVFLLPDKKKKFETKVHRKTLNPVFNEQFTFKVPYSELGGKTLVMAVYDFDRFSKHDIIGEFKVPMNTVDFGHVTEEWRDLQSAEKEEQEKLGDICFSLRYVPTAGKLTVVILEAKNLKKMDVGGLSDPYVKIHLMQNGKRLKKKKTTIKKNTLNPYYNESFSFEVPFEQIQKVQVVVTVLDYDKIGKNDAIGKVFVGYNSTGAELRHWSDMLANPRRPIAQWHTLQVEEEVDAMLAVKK

T2 sequence (P21707 whole entry): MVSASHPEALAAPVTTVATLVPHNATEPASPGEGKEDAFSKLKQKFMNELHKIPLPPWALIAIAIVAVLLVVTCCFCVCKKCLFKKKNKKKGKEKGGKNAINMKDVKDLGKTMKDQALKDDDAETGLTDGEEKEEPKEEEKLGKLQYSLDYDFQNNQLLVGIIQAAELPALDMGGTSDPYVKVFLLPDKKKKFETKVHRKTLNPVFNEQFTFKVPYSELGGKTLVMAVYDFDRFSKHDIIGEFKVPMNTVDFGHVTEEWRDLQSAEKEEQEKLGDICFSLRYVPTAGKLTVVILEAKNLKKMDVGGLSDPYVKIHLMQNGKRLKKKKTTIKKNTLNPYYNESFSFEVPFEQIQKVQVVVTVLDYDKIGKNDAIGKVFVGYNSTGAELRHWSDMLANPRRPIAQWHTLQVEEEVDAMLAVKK
T1 sequence (P46096 whole entry): as the sequence (P21707 whole entry) above, with H6R counted along it

B1: NbLumSyt1 fused to a GFP-tag (VHH)
VHH: EVQLVESGGGLVQTGGSLRLSCTASGSIGSISVMGWYRQVPGTQYELVAGISRGGSTWYEDSVKGRFTISRDNAKNTLYLQMNSLKPEDTGMYYCAGGDYSDRLGSWGQGTQVTVSS
notes: as the VHH of m1: NbLumSyt1, clone 1F12; PDB 8B8I chain A; Held on GFP Selector beads in the immunoprecipitation; detected with anti-GFP in the uptake assay; also called GFP tagged Nanobody; GFP-tagged nanobody; source: E. coli NEB SHuffle Express T7, purified (Ni-NTA, protease elution, MonoQ)
B1: binds [1].

B2: NbLumSyt1-APEX2 (VHH)
VHH: B1 VHH
notes: as the VHH of m1: NbLumSyt1, clone 1F12; PDB 8B8I chain A; also called Nb-APEX2
B2: binds [2].

B3: NbLumSyt1-pHluorin (VHH)
VHH: B1 VHH
notes: as the VHH of m1: NbLumSyt1, clone 1F12; PDB 8B8I chain A; Detected with anti-GFP after fixation in the human neuron uptake; also called pHluorin-labelled Syt1 nanobody; Syt1 pHluorin Nb; source: E. coli NEB SHuffle Express T7, purified (Ni-NTA, protease elution, MonoQ)
B3: binds [3].
